The values below are quoted from earlier work in PMC2737186.

The target in the data set is Cys1 (UniProt position 252, VVKNKCLAEGT).

As usually defined, the pKa is the pH at which an ionisable group is half protonated. Consider “Mtu RecA intein (form studied by Shingledecker, Jiang and Paulus 2000) (Mycobacterium tuberculosis)”, for which the pKa is recorded as 8.2.
